Assay results from patent US20170209564A1.

What was measured:
Assay in all cases: ELISA signal over HTRF expression signal, P. pastoris
Conditions in all cases: remark: other sources report otherwise
11H6 = target: 11H6
1F2 = target: 1F2
27B10 = target: 27B10
2D9 = target: 2D9
36D6 = target: 36D6
36E4 = target: 36E4
36H2 = target: 36H2
48B11 = target: 48B11
51G3 = target: 51G3
53G10 = target: 53G10
54H4 = target: 54H4
55H2 = target: 55H2
56F4 = target: 56F4
56F8 = target: 56F8
58A5 = target: 58A5
58C8 = target: 58C8
61A9 = target: 61A9
63D3 = target: 63D3
66C8 = target: 66C8
67C11 = target: 67C11
75E9 = target: 75E9
76A10 = target: 76A10
79D5 = target: 79D5
7B6 = target: 7B6
7D9 = target: 7D9
81F11 = target: 81F11
84B8 = target: 84B8
84E10 = target: 84E10
86B3 = target: 86B3
86B4 = target: 86B4
86F1 = target: 86F1
86H9 = target: 86H9
89F11 = target: 89F11
8A10 = target: 8A10
8D7 = target: 8D7
91F10 = target: 91F10
96A7 = target: 96A7
9C10 = target: 9C10

B1: CR6261 (antibody, V domains shown)
VH: EVQLVESGAEVKKPGSSVKVSCKASGGPFRSYAISWVRQAPGQGPEWMGGIIPIFGTTKYAPKFQGRVTITADDFAGTVYMELSSLRSEDTAMYYCAKHMGYQVRETMDVWGKGTTVTVSS
VL: QSVLTQPPSVSAAPGQKVTISCSGSSSNIGNDYVSWYQQLPGTAPKLLIYDNNKRPSGIPDRFSGSKSGTSATLGITGLQTGDEANYYCATWDRRPTAYVVFGGGTKLTVLG
fold increase of ratio over parental SEQ ID NO: 6 (11H6): 7.87
ratio (binding signal/HTRF signal) (11H6): 46.7
fold increase of ratio over parental SEQ ID NO: 6 (1F2): 2.04
ratio (binding signal/HTRF signal) (1F2): 12.1
fold increase of ratio over parental SEQ ID NO: 6 (27B10): 2.75
ratio (binding signal/HTRF signal) (27B10): 16.3
fold increase of ratio over parental SEQ ID NO: 6 (2D9): 2.76
ratio (binding signal/HTRF signal) (2D9): 16.4
fold increase of ratio over parental SEQ ID NO: 6 (36D6): 1.83
ratio (binding signal/HTRF signal) (36D6): 10.8
fold increase of ratio over parental SEQ ID NO: 6 (36E4): 2.07
ratio (binding signal/HTRF signal) (36E4): 12.3
fold increase of ratio over parental SEQ ID NO: 6 (36H2): 1.95
ratio (binding signal/HTRF signal) (36H2): 11.6
fold increase of ratio over parental SEQ ID NO: 6 (48B11): 3.41
ratio (binding signal/HTRF signal) (48B11): 20.3
fold increase of ratio over parental SEQ ID NO: 6 (51G3): 9.97
ratio (binding signal/HTRF signal) (51G3): 59.2
fold increase of ratio over parental SEQ ID NO: 6 (53G10): 2.93
ratio (binding signal/HTRF signal) (53G10): 17.4
fold increase of ratio over parental SEQ ID NO: 6 (54H4): 8.39
ratio (binding signal/HTRF signal) (54H4): 49.8
fold increase of ratio over parental SEQ ID NO: 6 (55H2): 3.28
ratio (binding signal/HTRF signal) (55H2): 19.5
fold increase of ratio over parental SEQ ID NO: 6 (56F4): 3.21
ratio (binding signal/HTRF signal) (56F4): 19.1
fold increase of ratio over parental SEQ ID NO: 6 (56F8): 3.65
ratio (binding signal/HTRF signal) (56F8): 21.7
fold increase of ratio over parental SEQ ID NO: 6 (58A5): 3.69
ratio (binding signal/HTRF signal) (58A5): 21.9
fold increase of ratio over parental SEQ ID NO: 6 (58C8): 2.51
ratio (binding signal/HTRF signal) (58C8): 14.9
fold increase of ratio over parental SEQ ID NO: 6 (61A9): 5.94
ratio (binding signal/HTRF signal) (61A9): 35.3
fold increase of ratio over parental SEQ ID NO: 6 (63D3): 1.87
ratio (binding signal/HTRF signal) (63D3): 11.1
fold increase of ratio over parental SEQ ID NO: 6 (66C8): 2.29
ratio (binding signal/HTRF signal) (66C8): 13.6
fold increase of ratio over parental SEQ ID NO: 6 (67C11): 3.57
ratio (binding signal/HTRF signal) (67C11): 21.2
fold increase of ratio over parental SEQ ID NO: 6 (75E9): 2.17
ratio (binding signal/HTRF signal) (75E9): 12.9
fold increase of ratio over parental SEQ ID NO: 6 (76A10): 3.37
ratio (binding signal/HTRF signal) (76A10): 20
fold increase of ratio over parental SEQ ID NO: 6 (79D5): 8.46
ratio (binding signal/HTRF signal) (79D5): 50.2
fold increase of ratio over parental SEQ ID NO: 6 (7B6): 1.66
ratio (binding signal/HTRF signal) (7B6): 9.84
fold increase of ratio over parental SEQ ID NO: 6 (7D9): 2.07
ratio (binding signal/HTRF signal) (7D9): 12.3
fold increase of ratio over parental SEQ ID NO: 6 (81F11): 5.37
ratio (binding signal/HTRF signal) (81F11): 31.9
fold increase of ratio over parental SEQ ID NO: 6 (84B8): 9.71
ratio (binding signal/HTRF signal) (84B8): 57.7
fold increase of ratio over parental SEQ ID NO: 6 (84E10): 5.37
ratio (binding signal/HTRF signal) (84E10): 31.9
fold increase of ratio over parental SEQ ID NO: 6 (86B3): 10.5
ratio (binding signal/HTRF signal) (86B3): 62.4
fold increase of ratio over parental SEQ ID NO: 6 (86B4): 13.1
ratio (binding signal/HTRF signal) (86B4): 77.7
fold increase of ratio over parental SEQ ID NO: 6 (86F1): 2.92
ratio (binding signal/HTRF signal) (86F1): 17.4
fold increase of ratio over parental SEQ ID NO: 6 (86H9): 5.77
ratio (binding signal/HTRF signal) (86H9): 34.3
fold increase of ratio over parental SEQ ID NO: 6 (89F11): 2.42
ratio (binding signal/HTRF signal) (89F11): 14.4
fold increase of ratio over parental SEQ ID NO: 6 (8A10): 6.29
ratio (binding signal/HTRF signal) (8A10): 37.4
fold increase of ratio over parental SEQ ID NO: 6 (8D7): 1.69
ratio (binding signal/HTRF signal) (8D7): 10
fold increase of ratio over parental SEQ ID NO: 6 (91F10): 1.78
ratio (binding signal/HTRF signal) (91F10): 10.6
fold increase of ratio over parental SEQ ID NO: 6 (96A7): 1.85
ratio (binding signal/HTRF signal) (96A7): 11
fold increase of ratio over parental SEQ ID NO: 6 (9C10): 2.91
ratio (binding signal/HTRF signal) (9C10): 17.3
